Assay results reported in publication PMC3695523, “Reconstitution and characterization of eukaryotic N6-threonylcarbamoylation of tRNA using a minimal enzyme system” (Nucleic Acids Research, 2013).

Substrate: C[C@@H](O)[C@H](N)C(=O)O
Test: HPLC nucleoside analysis of t6A formed on tRNA-Ile in reconstituted assay
Format: biochemical, Saccharomyces cerevisiae
Settings: coupled two-enzyme system: Sua5 plus yeast Qri7 (30-407), 2 uM Sua5/Qri7, 20 uM tRNA-Ile, 2 mM ATP, 1 mM NaHCO3, 5 mM MnCl2, 200 mM NaCl, 50 mM Tris-HCl pH 8.0, ambient temperature, 60 min

B1: Sua5 (Saccharomyces cerevisiae S288C) (protein)
chain: MYLGRHFLAMTSKALFDTKILKVNPLSIIFSPDAHIDGSLPTITDPETEAALVEAARIIRDTDETVAFPTETVYGLGGSALNDNSVLSIYRAKNRPSDNPLITHVSSIDQLNRKVFNQPHLSGTSLFDNIPSIYRPLISSLWPGPLTILLPVPSSEHSALSKLTTADQPTFAVRIPANPVARALIALSDTPIAAPSANASTRPSPTLASHVYHDLKDKIPIILDGGACKVGVESTVVDGLCNPPTLLRPGGFTYEEIVKLGGEAWSLCKVENKKTVEKGEKVRTPGMKYRHYSPSAKVVLLVPHCEGDGILKGVDRMERLKRLIETELKANSNIKKIAILTSLKLRDSDLQSKIFNEPDFSSKTFIIERLGQSGEEIQTNLFAALRKVDENDKVDLIFVEGINEEGEGLAVMNRLRKAAANNCIQF
notes: full length; N-terminal hexa-histidine or GST tag; expressed in E. coli BL21 (DE3) CodonPlus
Km: 0.11 ± 0.014 µM
